The term Kd denotes the concentration at which binding is half-saturated. A low value points to higher affinity. Broadly, the koff is the first-order rate constant of dissociation. A low value points to a long-lived complex. One may read the kon as the rate constant with which the complex forms. Lower therefore signals slow association.

In CN114907480A (JIANGSU XINTRUM PHARMACEUTICALS CO LTD, dated 2022) one finds Kd, koff and kon data, which are given here for two molecules.

For assay [1], the target named is T1, 重组人CD73蛋白 (自主表达的人源CD73蛋白, C端6×His标签) (human, UniProt P21589 27-549, limits assumed).
T1 sequence: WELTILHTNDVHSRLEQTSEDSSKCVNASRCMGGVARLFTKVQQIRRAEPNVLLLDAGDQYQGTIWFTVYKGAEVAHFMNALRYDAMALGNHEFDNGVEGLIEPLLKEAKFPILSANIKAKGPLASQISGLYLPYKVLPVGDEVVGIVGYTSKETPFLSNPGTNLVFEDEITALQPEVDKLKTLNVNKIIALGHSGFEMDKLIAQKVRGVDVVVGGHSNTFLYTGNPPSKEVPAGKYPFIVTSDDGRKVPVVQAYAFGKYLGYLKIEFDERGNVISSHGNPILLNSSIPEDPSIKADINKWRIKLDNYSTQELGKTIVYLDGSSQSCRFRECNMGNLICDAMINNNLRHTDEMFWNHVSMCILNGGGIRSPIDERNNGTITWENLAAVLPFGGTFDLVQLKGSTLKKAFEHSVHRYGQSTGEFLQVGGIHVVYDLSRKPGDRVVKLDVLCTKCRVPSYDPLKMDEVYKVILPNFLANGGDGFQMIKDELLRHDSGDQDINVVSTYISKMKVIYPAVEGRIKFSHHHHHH
Kind of assay: SPR, Biacore T200, antibody captured on CM5 chip, human CD73 as analyte, 25℃, 1:1 model. (Surface plasmon resonance follows binding to a sensor surface in real time, without labels.)

Assay [2] deals with T1, 重组人CD73蛋白 (自主表达的人源CD73蛋白, C端6×His标签). Kind of assay: SPR, Biacore T200, antibody captured by anti-mouse Fc IgG on CM5 chip, human CD73 as analyte, 25℃, 1:1 model.

B1: MEDI-9447 (MedImmune公司的抗CD73单克隆抗体) (antibody, V domains shown)
VH: EVQLLESGGGLVQPGGSLRLSCAASGFTFSSYAYSWVRQAPGKGLEWVSAISGSGGRTYYADSVKGRFTISRDNSKNTLYLQMNSLRAEDTAVYYCARLGYGRVDEWGRGTLVTVSS
VL: QSVLTQPPSASGTPGQRVTISCSGSLSNIGRNPVNWYQQLPGTAPKLLIYLDNLRLSGVPDRFSGSKSGTSASLAISGLQSEDEADYYCATWDDSHPGWTFGGGTKLTVL
In assay [1], B1 yielded a dissociation constant Kd of 0.141 nM, a koff of 3.91e-05 s⁻¹ and a kon of 278000 M⁻¹ s⁻¹.

B2: 抗人CD73单克隆抗体7-C10-Ba-C2 (antibody, V domains shown)
VH: EVQLQQSGPELVKPGASMKISCKASGYSFTGYTMNWVKQSHGKNLEWIGFITPYNGDTIYNQKFKGKATVTVDKSSSTAYMDLLSLTSEDSAVYYCAREGYDGGYFDYWGQGTTLTVSS
VL: DIQMTQSPASLSASVGETVTITCRASENIYSYLAWYQQKQGKSPQLLVYNTQTLAEGVPSRFSGSGSGTQFSLKINSLQPEDFGSYYCQHHYGTPMYPFGGGTKLEIK
notes: Mouse (BALB/c) hybridoma antibody, IgG type, purified from ascites; also called 本发明抗体7-C10-Ba-C2; 本发明的抗CD73单抗
In assay [2], B2 came in with a Kd of 0.416 nM, a koff of 3.21e-05 s⁻¹ and an on-rate constant (kon) of 77200 M⁻¹ s⁻¹.
